Results as given in article PMC5666081, “Solution structure of CXCL13 and heparan sulfate binding show that GAG binding site and cellular signalling rely on distinct domains” (Open Biology, 2017).

Target: T1, ΔN-CXCL13 (murine CXCL13 residues 31-109 with the initiating methionine) (murine)
T1 chain: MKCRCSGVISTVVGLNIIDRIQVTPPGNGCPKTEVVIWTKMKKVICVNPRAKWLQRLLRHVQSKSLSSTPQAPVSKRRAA
Assay: NMR titration; [15N,1H] correlation spectra at different protein concentrations; monomer and dimer signals in slow exchange; KD of dimer to monomers from integrated signals of monomer and dimer; T1/T2 relaxation; 20 mM phosphate, 100 mM NaCl, pH 6, 298 K; addition of HS tetrasaccharide dp4 (50 µM on 50 µM ΔN-CXCL13) increases the dimer signals
Conditions: both partners purified

- Kd: 300 ± 100 µM
- stoichiometry N: 2
B1: ΔN-CXCL13 (murine CXCL13 residues 31-109 with the initiating methionine) (domain or fragment)
chain: MKCRCSGVISTVVGLNIIDRIQVTPPGNGCPKTEVVIWTKMKKVICVNPRAKWLQRLLRHVQSKSLSSTPQAPVSKRRAA
modifications: initiating Met kept (piece 1); paper residue numbers are mature, offset +21 to the precursor; two disulfides expected from the chemokine fold / initiating Met kept (piece 1); paper residue numbers …
